Assay results taken from paper PMC9599728, “Polydopamine-Functionalized Copper Peroxide/ZIF-8 Nanoparticle-Based Fluorescence-Linked Immunosorbent Assay for the Sensitive Determination of Carcinoembryonic Antigen by Self-Supplied H2O2 Generatio”.

Target: carcinoembryonic antigen (CEA) (UniProt P06731 35-685)
Test: sandwich FLISA (antibody capture, aptamer nanoparticle probe); CEA on anti-CEA antibody plate; linear 0.01-20 ng/mL, LOD 7.6 pg/mL (assay values, not affinity); CEA capture 37 C 1 h, aptamer probe room temperature 1 h; washes in PBS 10 mM pH 7.4; probe blocked with 1% BSA; read-out with 4 mM OPD in 10 mM HAc-NaAc pH 5.5, 3 h, 565 nm
Details: protein: commercial

Sequence of carcinoembryonic antigen (CEA) (P06731 35-685): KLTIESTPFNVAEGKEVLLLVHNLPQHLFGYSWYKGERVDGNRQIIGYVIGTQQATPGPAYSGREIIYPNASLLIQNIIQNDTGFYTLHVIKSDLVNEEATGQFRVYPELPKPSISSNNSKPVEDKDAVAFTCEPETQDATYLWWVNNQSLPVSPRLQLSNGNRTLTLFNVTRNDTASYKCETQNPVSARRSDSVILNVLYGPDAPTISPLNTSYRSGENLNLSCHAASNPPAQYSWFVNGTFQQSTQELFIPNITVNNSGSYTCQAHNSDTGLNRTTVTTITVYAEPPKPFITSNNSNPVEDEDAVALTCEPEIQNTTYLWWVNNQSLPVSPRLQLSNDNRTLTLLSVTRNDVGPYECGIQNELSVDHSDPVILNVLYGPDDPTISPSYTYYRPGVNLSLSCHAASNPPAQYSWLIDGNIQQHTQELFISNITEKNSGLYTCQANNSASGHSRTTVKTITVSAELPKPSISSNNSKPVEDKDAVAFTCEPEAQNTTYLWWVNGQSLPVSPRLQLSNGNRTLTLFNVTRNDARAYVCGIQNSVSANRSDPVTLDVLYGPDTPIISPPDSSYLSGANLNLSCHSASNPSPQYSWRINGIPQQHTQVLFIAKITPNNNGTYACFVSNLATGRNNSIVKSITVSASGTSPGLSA

B1: CEA aptamer (ssDNA)
DNA: TTTTATACCAGCTTATTCAATT
modifications: 5'-NH2; coupled by glutaraldehyde to CP/ZIF-8/PDA nanoparticles
B1: binds.
